# Assay results reported in IntAct's records for PubMed 31515488.
# B1: Kelch-like protein 2 (Homo sapiens), O95198 (parent)
# chain: METPPLPPACTKQGHQKPLDSKDDNTEKHCPVTVNPWHMKKAFKVMNELRSQNLLCDVTIVAEDMEISAHRVVLAACSPYFHAMFTGEMSESRAKRVRIKEVDGWTLRMLIDYVYTAEIQVTEENVQVLLPAAGLLQLQDVKKTCCEFLESQLHPVNCLGIRAFADMHACTDLLNKANTYAEQHFADVVLSEEFLNLGIEQVCSLISSDKLTISSEEKVFEAVIAWVNHDKDVRQEFMARLMEHVRLPLLPREYLVQRVEEEALVKNSSACKDYLIEAMKYHLLPTEQRILMKSVRTRLRTPMNLPKLMVVVGGQAPKAIRSVECYDFKEERWHQVAELPSRRCRAGMVYMAGLVFAVGGFNGSLRVRTVDSYDPVKDQWTSVANMRDRRSTLGAAVLNGLLYAVGGFDGSTGLSSVEAYNIKSNEWFHVAPMNTRRSSVGVGVVGGLLYAVGGYDGASRQCLSTVECYNATTNEWTYIAEMSTRRSGAGVGVLNNLLYAVGGHDGPLVRKSVEVYDPTTNAWRQVADMNMCRRNAGVCAVNGLLYVVGGDDGSCNLASVEYYNPTTDKWTVVSSCMSTGRSYAGVTVIDKPL
# partner: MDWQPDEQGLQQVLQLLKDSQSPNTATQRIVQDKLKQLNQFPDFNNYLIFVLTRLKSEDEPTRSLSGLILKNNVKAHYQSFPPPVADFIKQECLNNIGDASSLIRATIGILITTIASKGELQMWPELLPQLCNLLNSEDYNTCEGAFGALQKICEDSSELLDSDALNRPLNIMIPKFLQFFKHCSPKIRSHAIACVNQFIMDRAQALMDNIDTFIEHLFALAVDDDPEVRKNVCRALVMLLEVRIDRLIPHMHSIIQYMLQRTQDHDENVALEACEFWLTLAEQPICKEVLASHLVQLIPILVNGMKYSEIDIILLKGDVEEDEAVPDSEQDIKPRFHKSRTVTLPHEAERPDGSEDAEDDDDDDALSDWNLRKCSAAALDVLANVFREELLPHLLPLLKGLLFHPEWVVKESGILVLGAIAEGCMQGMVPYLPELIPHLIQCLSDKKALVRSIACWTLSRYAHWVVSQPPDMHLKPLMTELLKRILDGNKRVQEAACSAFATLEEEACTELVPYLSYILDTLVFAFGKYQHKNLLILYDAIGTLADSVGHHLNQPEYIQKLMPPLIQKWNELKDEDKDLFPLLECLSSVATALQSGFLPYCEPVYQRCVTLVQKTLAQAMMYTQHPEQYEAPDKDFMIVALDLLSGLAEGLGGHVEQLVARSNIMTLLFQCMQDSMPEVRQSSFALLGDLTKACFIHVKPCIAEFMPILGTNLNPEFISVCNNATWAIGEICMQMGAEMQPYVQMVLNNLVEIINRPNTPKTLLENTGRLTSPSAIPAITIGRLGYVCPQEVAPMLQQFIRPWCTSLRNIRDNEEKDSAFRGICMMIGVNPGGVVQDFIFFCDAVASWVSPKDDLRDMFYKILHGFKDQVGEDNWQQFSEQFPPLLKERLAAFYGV
# B2: TBC1 domain family member 7 (Homo sapiens), Q9P0N9 (parent)
# chain: MTEDSQRNFRSVYYEKVGFRGVEEKKSLEILLKDDRLDTEKLCTFSQRFPLPSMYRALVWKVLLGILPPHHESHAKVMMYRKEQYLDVLHALKVVRFVSDATPQAEVYLRMYQLESGKLPRSPSFPLEPDDEVFLAIAKAMEEMVEDSVDCYWITRRFVNQLNTKYRDSLPQLPKAFEQYLNLEDGRLLTHLRMCSAAPKLPYDLWFKRCFAGCLPESSLQRVWDKVVSGSCKILVFVAVEILLTFKIKVMALNSAEKITKFLENIPQDSSDAIVSKAIDLWHKHCGTPVHSS
# partner: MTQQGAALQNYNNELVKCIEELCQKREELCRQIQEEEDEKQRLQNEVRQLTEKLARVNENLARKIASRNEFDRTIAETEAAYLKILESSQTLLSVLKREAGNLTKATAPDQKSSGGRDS
# B3: Zinc finger CCHC domain-containing protein 10 (Homo sapiens), Q8TBK6 (parent)
# chain: MATPMHRLIARRQAFDTELQPVKTFWILIQPSIVISEANKQHVRCQKCLEFGHWTYECTGKRKYLHRPSRTAELKKALKEKENRLLLQQSIGETNVERKAKKKRSKSVTSSSSSSSDSSASDSSSESEETSTSSSSEDSDTDESSSSSSSSASSTTSSSSSDSDSDSSSSSSSSTSTDSSSDDEPPKKKKKK
# B4: CD2 antigen cytoplasmic tail-binding protein 2 (Homo sapiens), O95400 (parent)
# chain: MPKRKVTFQGVGDEEDEDEIIVPKKKLVDPVAGSGGPGSRFKGKHSLDSDEEEDDDDGGSSKYDILASEDVEGQEAATLPSEGGVRITPFNLQEEMEEGHFDADGNYFLNRDAQIRDSWLDNIDWVKIRERPPGQRQASDSEEEDSLGQTSMSAQALLEGLLELLLPRETVAGALRRLGARGGGKGRKGPGQPSSPQRLDRLSGLADQMVARGNLGVYQETRERLAMRLKGLGCQTLGPHNPTPPPSLDMFAEELAEEELETPTPTQRGEAESRGDGLVDVMWEYKWENTGDAELYGPFTSAQMQTWVSEGYFPDGVYCRKLDPPGGQFYNSKRIDFDLYT
# B5: Protein Tob1 (Homo sapiens), P50616 (parent)
# chain: MQLEIQVALNFIISYLYNKLPRRRVNIFGEELERLLKKKYEGHWYPEKPYKGSGFRCIHIGEKVDPVIEQASKESGLDIDDVRGNLPQDLSVWIDPFEVSYQIGEKGPVKVLYVDDNNENGCELDKEIKNSFNPEAQVFMPISDPASSVSSSPSPPFGHSAAVSPTFMPRSTQPLTFTTATFAATKFGSTKMKNSGRSNKVARTSPINLGLNVNDLLKQKAISSSMHSLYGLGLGSQQQPQQQQQPAQPPPPPPPPQQQQQQKTSALSPNAKEFIFPNMQGQGSSTNGMFPGDSPLNLSPLQYSNAFDVFAAYGGLNEKSFVDGLNFSLNNMQYSNQQFQPVMAN
# B6: Serine/threonine-protein kinase PAK 5 (Homo sapiens), Q9P286 (parent)
# chain: MFGKKKKKIEISGPSNFEHRVHTGFDPQEQKFTGLPQQWHSLLADTANRPKPMVDPSCITPIQLAPMKTIVRGNKPCKETSINGLLEDFDNISVTRSNSLRKESPPTPDQGASSHGPGHAEENGFITFSQYSSESDTTADYTTEKYREKSLYGDDLDPYYRGSHAAKQNGHVMKMKHGEAYYSEVKPLKSDFARFSADYHSHLDSLSKPSEYSDLKWEYQRASSSSPLDYSFQFTPSRTAGTSGCSKESLAYSESEWGPSLDDYDRRPKSSYLNQTSPQPTMRQRSRSGSGLQEPMMPFGASAFKTHPQGHSYNSYTYPRLSEPTMCIPKVDYDRAQMVLSPPLSGSDTYPRGPAKLPQSQSKSGYSSSSHQYPSGYHKATLYHHPSLQSSSQYISTASYLSSLSLSSSTYPPPSWGSSSDQQPSRVSHEQFRAALQLVVSPGDPREYLANFIKIGEGSTGIVCIATEKHTGKQVAVKKMDLRKQQRRELLFNEVVIMRDYHHDNVVDMYSSYLVGDELWVVMEFLEGGALTDIVTHTRMNEEQIATVCLSVLRALSYLHNQGVIHRDIKSDSILLTSDGRIKLSDFGFCAQVSKEVPKRKSLVGTPYWMAPEVISRLPYGTEVDIWSLGIMVIEMIDGEPPYFNEPPLQAMRRIRDSLPPRVKDLHKVSSVLRGFLDLMLVREPSQRATAQELLGHPFLKLAGPPSCIVPLMRQYRHH
# partner: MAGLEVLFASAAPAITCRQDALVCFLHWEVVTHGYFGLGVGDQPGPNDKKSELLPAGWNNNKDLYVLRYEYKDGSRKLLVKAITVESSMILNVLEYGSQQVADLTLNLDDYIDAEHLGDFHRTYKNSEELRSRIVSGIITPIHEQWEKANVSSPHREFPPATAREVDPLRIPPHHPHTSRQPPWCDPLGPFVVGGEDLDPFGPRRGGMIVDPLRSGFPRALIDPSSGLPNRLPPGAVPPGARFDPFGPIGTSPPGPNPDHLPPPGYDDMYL
# B7: Transcription factor 12 (Homo sapiens), Q99081 (parent)
# chain: MNPQQQRMAAIGTDKELSDLLDFSAMFSPPVNSGKTRPTTLGSSQFSGSGIDERGGTTSWGTSGQPSPSYDSSRGFTDSPHYSDHLNDSRLGAHEGLSPTPFMNSNLMGKTSERGSFSLYSRDTGLPGCQSSLLRQDLGLGSPAQLSSSGKPGTAYYSFSATSSRRRPLHDSAALDPLQAKKVRKVPPGLPSSVYAPSPNSDDFNRESPSYPSPKPPTSMFASTFFMQDGTHNSSDLWSSSNGMSQPGFGGILGTSTSHMSQSSSYGNLHSHDRLSYPPHSVSPTDINTSLPPMSSFHRGSTSSSPYVAASHTPPINGSDSILGTRGNAAGSSQTGDALGKALASIYSPDHTSSSFPSNPSTPVGSPSPLTGTSQWPRPGGQAPSSPSYENSLHSLQSRMEDRLDRLDDAIHVLRNHAVGPSTSLPAGHSDIHSLLGPSHNAPIGSLNSNYGGSSLVASSRSASMVGTHREDSVSLNGNHSVLSSTVTTSSTDLNHKTQENYRGGLQSQSGTVVTTEIKTENKEKDENLHEPPSSDDMKSDDESSQKDIKVSSRGRTSSTNEDEDLNPEQKIEREKERRMANNARERLRVRDINEAFKELGRMCQLHLKSEKPQTKLLILHQAVAVILSLEQQVRERNLNPKAACLKRREEEKVSAVSAEPPTTLPGTHPGLSETTNPMGHM
# partner: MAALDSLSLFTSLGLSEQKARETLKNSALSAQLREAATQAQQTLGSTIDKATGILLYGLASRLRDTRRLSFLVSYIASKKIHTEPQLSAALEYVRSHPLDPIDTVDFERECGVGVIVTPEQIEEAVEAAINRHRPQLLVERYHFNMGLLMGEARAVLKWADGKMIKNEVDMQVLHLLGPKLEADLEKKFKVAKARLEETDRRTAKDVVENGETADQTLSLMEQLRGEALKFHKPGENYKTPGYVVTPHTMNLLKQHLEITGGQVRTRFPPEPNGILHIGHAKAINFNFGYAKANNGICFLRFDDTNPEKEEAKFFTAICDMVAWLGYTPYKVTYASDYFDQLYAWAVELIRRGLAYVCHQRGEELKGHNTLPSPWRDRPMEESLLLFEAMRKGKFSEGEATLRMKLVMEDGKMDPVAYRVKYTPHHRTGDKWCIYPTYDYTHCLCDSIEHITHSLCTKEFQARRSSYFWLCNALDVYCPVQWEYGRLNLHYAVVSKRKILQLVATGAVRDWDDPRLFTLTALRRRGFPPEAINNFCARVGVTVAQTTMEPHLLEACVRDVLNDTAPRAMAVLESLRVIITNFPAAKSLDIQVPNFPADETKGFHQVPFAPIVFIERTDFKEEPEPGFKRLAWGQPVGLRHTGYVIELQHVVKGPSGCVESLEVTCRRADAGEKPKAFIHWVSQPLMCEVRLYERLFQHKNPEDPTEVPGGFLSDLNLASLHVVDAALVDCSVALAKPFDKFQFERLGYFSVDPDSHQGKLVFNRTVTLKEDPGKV
# Variants of: B1
# Settings: with tnpo2_human TNPO2, O14787
row,Variant,effect of a mutation on the interaction
1,S68A,with no effect

# Variants of: B2
# Settings: with ssna1_human SSNA1, O43805
row,Variant,effect of a mutation on the interaction
1,L67W,disrupting interaction strength

# Variants of: B3
# Settings: with cep70_human CEP70, Q8NHQ1
# cep70_human CEP70, Q8NHQ1, sequence (Q8NHQ1 whole entry): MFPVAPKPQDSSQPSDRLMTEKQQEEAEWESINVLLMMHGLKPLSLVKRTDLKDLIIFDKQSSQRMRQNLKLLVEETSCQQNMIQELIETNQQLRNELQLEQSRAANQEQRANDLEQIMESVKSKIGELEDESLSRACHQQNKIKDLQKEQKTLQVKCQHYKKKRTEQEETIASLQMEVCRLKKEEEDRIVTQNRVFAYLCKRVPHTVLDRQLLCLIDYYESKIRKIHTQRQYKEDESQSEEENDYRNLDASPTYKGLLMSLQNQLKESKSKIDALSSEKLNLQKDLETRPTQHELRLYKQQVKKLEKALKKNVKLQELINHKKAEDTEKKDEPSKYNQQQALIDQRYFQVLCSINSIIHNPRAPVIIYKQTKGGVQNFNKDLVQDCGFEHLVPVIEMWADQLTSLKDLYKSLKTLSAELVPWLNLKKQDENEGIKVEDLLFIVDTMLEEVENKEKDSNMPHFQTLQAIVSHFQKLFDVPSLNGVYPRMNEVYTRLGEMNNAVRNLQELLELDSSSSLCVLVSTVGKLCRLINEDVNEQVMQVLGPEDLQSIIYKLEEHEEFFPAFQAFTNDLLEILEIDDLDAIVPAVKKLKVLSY
row,Variant,effect of a mutation on the interaction
1,S153P,with no effect

# Variants of: B3
# Settings: with dzip3_human DZIP3, Q86Y13
# dzip3_human DZIP3, Q86Y13, sequence (Q86Y13 whole entry): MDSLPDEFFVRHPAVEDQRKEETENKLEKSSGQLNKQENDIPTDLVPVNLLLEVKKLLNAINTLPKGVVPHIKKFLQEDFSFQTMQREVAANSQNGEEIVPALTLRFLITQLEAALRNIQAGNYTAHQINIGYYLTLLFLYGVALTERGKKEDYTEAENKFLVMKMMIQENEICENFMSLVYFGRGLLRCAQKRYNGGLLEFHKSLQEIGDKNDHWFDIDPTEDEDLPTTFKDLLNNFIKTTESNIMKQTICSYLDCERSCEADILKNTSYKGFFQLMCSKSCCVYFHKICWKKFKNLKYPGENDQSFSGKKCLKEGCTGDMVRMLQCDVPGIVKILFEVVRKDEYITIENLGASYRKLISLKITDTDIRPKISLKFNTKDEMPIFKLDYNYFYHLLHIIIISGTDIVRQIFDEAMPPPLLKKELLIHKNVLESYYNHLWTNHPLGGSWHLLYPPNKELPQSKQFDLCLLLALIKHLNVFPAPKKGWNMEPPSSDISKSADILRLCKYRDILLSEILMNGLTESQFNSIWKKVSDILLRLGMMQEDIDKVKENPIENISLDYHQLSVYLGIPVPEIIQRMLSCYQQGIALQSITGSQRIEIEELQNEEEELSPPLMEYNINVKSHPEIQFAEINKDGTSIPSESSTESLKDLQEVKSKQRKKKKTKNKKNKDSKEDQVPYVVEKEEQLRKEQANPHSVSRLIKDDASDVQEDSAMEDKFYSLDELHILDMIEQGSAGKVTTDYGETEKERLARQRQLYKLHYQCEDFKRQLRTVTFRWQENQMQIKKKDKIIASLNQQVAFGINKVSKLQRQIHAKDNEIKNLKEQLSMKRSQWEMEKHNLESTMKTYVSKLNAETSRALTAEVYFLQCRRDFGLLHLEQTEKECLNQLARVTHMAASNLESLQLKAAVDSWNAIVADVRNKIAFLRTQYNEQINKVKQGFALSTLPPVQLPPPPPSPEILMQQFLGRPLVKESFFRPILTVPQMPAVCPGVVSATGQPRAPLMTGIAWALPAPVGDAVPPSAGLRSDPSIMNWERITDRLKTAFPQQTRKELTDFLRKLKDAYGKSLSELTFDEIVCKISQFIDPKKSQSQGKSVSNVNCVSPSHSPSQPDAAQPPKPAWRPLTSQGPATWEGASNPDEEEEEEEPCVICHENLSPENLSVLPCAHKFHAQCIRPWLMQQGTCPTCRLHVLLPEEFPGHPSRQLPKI
row,Variant,effect of a mutation on the interaction
1,S153P,with no effect

# Variants of: B4
# Settings: with rsmb_human SNRPB
row,Variant,effect of a mutation on the interaction
1,T262I,with no effect

# Variants of: B5
# Settings: with cnot7_human CNOT7, Q9UIV1
# cnot7_human CNOT7, Q9UIV1, sequence (Q9UIV1 whole entry): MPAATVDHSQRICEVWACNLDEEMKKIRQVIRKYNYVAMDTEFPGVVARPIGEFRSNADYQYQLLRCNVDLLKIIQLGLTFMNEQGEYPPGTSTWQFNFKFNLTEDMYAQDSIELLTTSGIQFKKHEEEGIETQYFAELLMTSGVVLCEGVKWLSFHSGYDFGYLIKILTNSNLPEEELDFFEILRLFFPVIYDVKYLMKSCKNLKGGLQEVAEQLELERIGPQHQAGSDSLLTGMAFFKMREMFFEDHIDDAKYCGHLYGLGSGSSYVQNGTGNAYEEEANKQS
row,Variant,effect of a mutation on the interaction
1,Y50N,with no effect

# Variants of: B6
# Settings: with psmf1_human PSMF1, Q92530
row,Variant,effect of a mutation on the interaction
1,R335P,with no effect

# Variants of: B7
# Settings: with syq_human QARS1, P47897
row,Variant,effect of a mutation on the interaction
1,N479S,with no effect
2,G300S,with no effect
3,A458V,with no effect
4,D565V,with no effect
5,L483R,with no effect
